Results published in paper PMC7505815, “Estrogen receptor alpha (ERα)–mediated coregulator binding and gene expression discriminates the toxic ERα agonist diethylstilbestrol (DES) from the endogenous ERα agonist 17β-estradiol (E2)” (Cell Biology and Toxicology, 2020).

Target: T1, Polyhistidine (His) tagged ERα ligand binding domain (amino acids 302–552) (UniProt P03372 302-552)
T1 construct: Detected on the array by a penta-His Alexa Fluor 488 antibody; Always tested with E2, DES or solvent (2% DMSO); also called ERα-LBD; source: partly purified from Escherichia coli (Qiagen)
T1 sequence (looked up): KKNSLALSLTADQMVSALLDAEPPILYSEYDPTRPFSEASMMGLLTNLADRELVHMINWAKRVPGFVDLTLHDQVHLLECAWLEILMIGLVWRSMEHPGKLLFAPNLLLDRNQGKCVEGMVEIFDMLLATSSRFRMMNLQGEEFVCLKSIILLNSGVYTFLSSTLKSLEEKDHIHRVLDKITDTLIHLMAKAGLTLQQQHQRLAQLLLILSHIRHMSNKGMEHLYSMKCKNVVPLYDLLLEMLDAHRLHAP
Test: peptide or protein array; MARCoNI, PamChip peptide microarray: coregulator motif peptides immobilised; His-ERα-LBD 10 nM (partly purified) in solution with E2 (10^-12 to 10^-5 M), detected with penta-His Alexa Fluor 488 antibody 25 nM; 20 °C; 20 mM Tris-HCl pH 7.5, 500 mM NaCl, 0.2% BSA, 0.05% Tween 20, 2% DMSO
Settings: both partners purified

B1: TRRAP_3535_3557_C3535S/C3555S (peptide, UniProt Q9Y4A5 3535-3557, looked up)
peptide: SLTESRREERVLQLLRLLNPSLE
notes: Immobilised on the PamChip; also called TRRAP_3535_3557_C3535S/C3535S; source: bought: PamChip peptide microarray, PamGene International BV
  binding result: binds
